Test results reported in patent US20230265187A1 (published 2023).

How the values were obtained:
[1] = target: T1, human TIGIT on Jurkat cells (TIGIT/NFAT reporter Jurkat cells, BPS Bioscience #60538); Promega TIGIT Effector … (human, UniProt Q495A1 22-244); test: flow cytometry, TIGIT/NFAT Jurkat cells, 10 ug/ml
T1 construct: whole, on cells; Same protein on two bought Jurkat lines (flow cytometry: BPS; bioassay: Promega); also called hu TIGIT cells; cells expressing human TIGIT
T1 sequence (looked up): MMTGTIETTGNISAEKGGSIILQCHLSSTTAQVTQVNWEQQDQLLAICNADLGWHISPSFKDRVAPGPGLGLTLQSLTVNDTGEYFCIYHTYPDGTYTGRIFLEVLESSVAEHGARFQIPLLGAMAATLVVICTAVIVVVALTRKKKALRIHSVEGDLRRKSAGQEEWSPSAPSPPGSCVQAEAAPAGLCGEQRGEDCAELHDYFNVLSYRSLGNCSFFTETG

[2] = target: T2, his-tagged human TIGIT (Acro Biosystems #TIT-H52H3) (human, UniProt Q495A1 22-141); test: SPR (Carterra LSA), scFv-Fc captured, His-TIGIT analyte
T2 construct: Bought protein; also called His-tagged-TIGIT (human); not shown: his tag
T2 sequence (looked up): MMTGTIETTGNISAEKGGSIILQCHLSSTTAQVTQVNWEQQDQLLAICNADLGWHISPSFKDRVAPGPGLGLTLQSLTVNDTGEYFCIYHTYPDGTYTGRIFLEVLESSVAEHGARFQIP
Procedure, shortened: (§1)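 Affinity from His-TIGIT analyte injected in 1:2 serial dilution over antibody captured as scFv-Fc via amine-coupled goat anti-human Fc on an HC30M surface. Supernatants diluted 30-fold in HBSTE; kinetic fitting.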

[3] = target: T3, his-tagged murine TIGIT (Acro Biosystems #TIT-M52E6) (murine, UniProt P86176 29-148, limits assumed); test: as above
T3 construct: Bought protein; also called mouse his-tagged TIGIT; not shown: his tag
T3 sequence (looked up): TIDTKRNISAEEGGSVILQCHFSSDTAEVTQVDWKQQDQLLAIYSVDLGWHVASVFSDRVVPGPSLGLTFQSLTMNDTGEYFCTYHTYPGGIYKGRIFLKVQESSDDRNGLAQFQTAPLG
Procedure, shortened: as §1

[4] = target: T4, His-tagged cynomolgus monkey TIGIT (Acro Biosystems #TIT-05223) (cynomolgus monkey, UniProt A0A7N9I9V4 89-209); test: as above
T4 construct: Bought protein; also called cyno TIGIT; cynomolgus TIGIT; not shown: His tag
T4 sequence (A0A7N9I9V4 entry or part of it): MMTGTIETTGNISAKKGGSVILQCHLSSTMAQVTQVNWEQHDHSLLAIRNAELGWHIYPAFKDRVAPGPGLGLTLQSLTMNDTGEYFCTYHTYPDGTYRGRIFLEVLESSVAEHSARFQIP
Procedure, shortened: as §1

[5] = target: T1, human TIGIT on Jurkat cells (TIGIT/NFAT …); test: cell-based or functional assay
[6] = target: T2, his-tagged human TIGIT (Acro Biosystems …); test: ELISA, coated His-TIGIT, 1 ug/ml
[7] = target: T3, his-tagged murine TIGIT (Acro …); test: ELISA, coated His-TIGIT, 1 ug/ml
[8] = target: T4, His-tagged cynomolgus monkey TIGIT …; test: ELISA, coated His-TIGIT, 1 ug/ml
[9] = target: T3, his-tagged murine TIGIT (Acro …); test: SPR (Carterra LSA), scFv-Fc captured, His-TIGIT analyte; repeat
Method: (§2) Binding affinities of anti-TIGIT antibodies to human, cyno, and murine TIGIT were measured by Surface Plasmon Resonance (SPR) on a Carterra LSA instrument. Goat anti-human Fc antibody was amine coupled to a HC30M chip. ScFv-Fc supernatants were diluted 30-fold with HBSTE and were captured by the anti-human Fc coupled HC30M chip. A 1:2 dilution series of his-tagged human TIGIT, starting at 400 nM, was injected onto the chip for binding. A dilution series was also carried out for cyno TIGIT and murine TIGIT. Data were analyzed using the Carterra™ Kinetics software.

[10] = target: T4, His-tagged cynomolgus monkey TIGIT …; test: as above
Method: as §2

[11] = target: T2, his-tagged human TIGIT (Acro Biosystems …); test: SPR (Carterra LSA), antibody captured, His-TIGIT analyte
[12] = target: T4, His-tagged cynomolgus monkey TIGIT …; test: as above
[13] = target: T4, His-tagged cynomolgus monkey TIGIT …; test: SPR (Carterra LSA), antibody captured, His-TIGIT analyte; repeat

B1: 43586p1.2.E2 (scFv, V domains shown)
VH: EVQLLESGGGLVQPGGSLRLSCAASGFTFTSYLMSWVRQAPGKGLEWVSTITWDGDRTYYADSVKGRFTISRDNSKNTLYLQMNSLRVGDTAVYYCAKHWTVFQYGMDVWGQGTTVTVSS
VL: QSVLTQPASASGTPGQRVTISCSGTISNIETKYVSWYQQLPGTAPKLLIYGNHQRPSGVPDRFSGSKSGTSASLAISGLQSEDEADYYCASWENDLKSWVFGGGTKLTVL
B1 was tested, and the MFI [1] was 9320 MFI, the Kd [2] was 0.0486 nM and the Kd [3] was 122 nM. The Kd [4] was 9.5 nM, the “max. signal (% of 22G2)” value [5] was 125 % of 22G2 and the “Elisa OD450” value [6] was 2.02 OD450. The “Elisa OD450” value [7] was 1.78 OD450, the “Elisa OD450” value [8] was 1.73 OD450 and the Kd [9] was 67 nM. The Kd [10] was 4.8 nM.

B2: 43586p1.2.E4 (scFv, V domains shown)
VH: EVQLLESGGGLVQPGGSLRLSCAASGFTFSDYLMTWVRQAPGKGLEWVSTITWDGDRTYYADSVKGRFTISRDNSKNTLYLQMNSLRAEDTAVYYCAKHWTVFQYGMDVWGQGTTVTVSS
VL: QSVLTQPPSASGTPGQRVTISCSGTISNIEIKYVSWYQQLPGTAPKLLIYGNHQRPSGVPDRFSGSKSGTSASLAISGLQSEDEADYYCSSWENDLKSWVFGGGTKLTVL
For B2, the MFI [1] was 9550 MFI, the Kd [2] was 0.117 nM and the Kd [3] was 66.5 nM. For the same binder, the Kd [4] was 25.4 nM, the “max. signal (% of 22G2)” value [5] was 113 % of 22G2 and the “Elisa OD450” value [6] was 2.09 OD450. The “Elisa OD450” value [7] was 2.03 OD450, the “Elisa OD450” value [8] was 1.86 OD450 and the Kd [9] was 18 nM. It also gave a Kd [10] of 2.8 nM.

B3: 43586p1.2.F9 (scFv, V domains shown)
VH: EVQLLESGGGLVQPGGSLRLSCAASGFTFDDYVMSWVRQAPGKGLEWVSLINWNGDKTYYADSVKGRFTISRDNSKNTLYLQMNSLRAEDTAIYYCAKHWIVFQYGMDVWGRGTTVTVSS
VL: QSVLTQPPSASGTPGQRVTISCSGSISNIETKYVSWYQQLPGTAPKLLIYNSDQRPSGVPDRFSGSKSGTSASLAISGLQSEDEADYYCVSWDASLKSWVFGGGTKLTVL
B3 gave an MFI [1] of 9110 MFI, a Kd [2] of 0.338 nM and a Kd [3] of 4.95 nM. For the same binder, the Kd [4] was 12.2 nM, the “max. signal (% of 22G2)” value [5] was 127 % of 22G2 and the “Elisa OD450” value [6] was 2 OD450. For the same binder, the “Elisa OD450” value [7] was 2.14 OD450, the “Elisa OD450” value [8] was 1.71 OD450 and the Kd [9] was 2.1 nM. For the same binder, the Kd [10] was 2 nM.

B4: 43586p1.2.G4 (scFv, V domains shown)
VH: EVQLLESGGGLVQPGGSLRLSCAASGFTFDDYVMSWVRQAPGKGLEWVSLINWNGDKTYYADSVKGRFTISRDNSKNTLYLQMNSLRAEDTAVYYCARHWIVFQYGLDVWGQGTTVTVSS
VL: QSVLTQPLSASGTPGQRVTISCSGVSSNIEIKYVSWYQQLPGTAPKLLIYNSHQRPSGVPDRFSGSKSGTSASLAISGLQSEDEADYYCTSWDDRLKSWVFGGGTKLTVL
Work on B4 yielded an MFI [1] of 9340 MFI, a Kd [2] of 0.394 nM and a Kd [3] of 6.89 nM. For the same binder, the Kd [4] was 3.19 nM, the “max. signal (% of 22G2)” value [5] was 101 % of 22G2 and the “Elisa OD450” value [6] was 2.02 OD450. The “Elisa OD450” value [7] was 2.04 OD450, the “Elisa OD450” value [8] was 1.88 OD450 and the Kd [9] was 4.8 nM. It also gave a Kd [10] of 0.582 nM.

B5: 43586p1.2.G10 (scFv, V domains shown)
VH: EVQLLESGGGLVQPGGSLRLSCAASGFTFDDYVMSWVRQAPGKELEWVSLINWNGDKTCYADSVKGRFTISRDNSKNTLYLQMNSLRAEDTAIYYCAKHWIVFQYGMDVWGQGTTVTVSS
VL: QSVLTQPPSASGTPGQRVTISCSGSISNIETKYVSWYQQLPGTAPKLLIYNSDQRPSGVPDRFSGSKSGTSASLAISGLQSEDEADYYCVSWDASLKSWVFGGGTKLTVL
B5 was tested, and the MFI [1] was 10100 MFI, the Kd [2] was 0.941 nM and the Kd [3] was 15.6 nM. For the same binder, the Kd [4] was 14 nM, the “max. signal (% of 22G2)” value [5] was 96 % of 22G2 and the “Elisa OD450” value [6] was 1.99 OD450. The “Elisa OD450” value [7] was 2.1 OD450, the “Elisa OD450” value [8] was 1.52 OD450 and the Kd [9] was 10 nM. For the same binder, the Kd [10] was 6.3 nM.

B6: 43586p2.D11 (scFv, V domains shown)
VH: EVQLLESGGGLVQPGGSLRLSCAASGFTFDDYVMSWVRQAPGKGLEWVSLINWSGGTTYYADSVKGRFTISRDNSKNTLYLQMNSLRAEDTAVYYCAKHWIVYQYGMDVWGQGTTVTVSS
VL: QSVLTQPSSASGTPGQRVAISCSGTISNIETKYVSWYKYVSWYQQLPGTAPKLLIYNNVQRPSGVPDRFSGSQSGTSASLAISGLQSEDEAHYYCASWEGGLNSWVFGGGTKLTVL
B6 showed an MFI [1] of 9530 MFI, a Kd [2] of 0.558 nM and a Kd [3] of 41.4 nM. For the same binder, the Kd [4] was 87.4 nM, the “max. signal (% of 22G2)” value [5] was 102 % of 22G2 and the “Elisa OD450” value [6] was 2.01 OD450. For the same binder, the “Elisa OD450” value [7] was 1.61 OD450, the “Elisa OD450” value [8] was 1.6 OD450 and the Kd [9] was 0.744 nM. For the same binder, the Kd [10] was 4.4 nM.

B7: 43352p1.H8 (scFv, V domains shown)
VH: DVQLVESGGGVVRPGESLRLSCAASGFNFSTYAMNWVRQAPGEGLEWVSGISGRSSGDTTYYADSVRGWFTVSRDNSKNTLYLQMSSLRAEDTAVYYCARETWIRGYFDYWGLGTLVTVSS
VL: QSVLTQPPSASGTPGQRVTISCSGSRSNLGNNLVYWYQQLPGTAPKLLIYFNNERPSGVPDRFSGSKSGTSASLAISGVQSEDEADYYCATWDDSLNGWVFGGGTKLTVL
B7 showed an MFI [1] of 10300 MFI, a Kd [2] of 0.194 nM and a Kd [3] of 1.14 nM. The Kd [4] was 120 nM, the “max. signal (% of 22G2)” value [5] was 96 % of 22G2 and the “Elisa OD450” value [6] was 1.8 OD450. For the same binder, the “Elisa OD450” value [7] was 1.85 OD450, the “Elisa OD450” value [8] was 0.363 OD450 and the Kd [9] was 0.74 nM. It also gave a Kd [10] of 114 nM.

B8: 43645p1.F11 (scFv, V domains shown)
VH: EVQLLESGGGLVQPGGSLRLSCAASGFTFSSYWMSWVRQAPGKGLEWVSGIHISDSTYYADSVKGRFTISRDNSKNTLYLQMNSLRAEDTAVYYCAKGHTVLQYGMDVWGQGTTVTVSS
VL: QSGLTQPPSASGTPGQRVTISCSGDISNTRNNYVSWYQQLPGTAPKLLIYRNSQRPSGVPDRFSGSKSATSASLAISGLQSEDEADYYCGTWDNTLNAWVFGGGTKLTVL
With B8 the MFI [1] was 10900 MFI, the Kd [2] was 0.322 nM and the Kd [3] was 235 nM. For the same binder, the Kd [4] was 33 nM, the “max. signal (% of 22G2)” value [5] was 100 % of 22G2 and the “Elisa OD450” value [6] was 2.03 OD450. For the same binder, the “Elisa OD450” value [7] was 1.85 OD450, the “Elisa OD450” value [8] was 1.8 OD450 and the Kd [9] was 91 nM. For the same binder, the Kd [10] was 16 nM.

B9: benchmark 22G2 (antibody, V domains shown)
VH: QVHLQESGPGLVKPSETLSLTCTVSGGSVSSGIYYWSWIRQPPGKGLEWIGYIYYSGSTNYNPSLKSRVTISVDTSKNQFSLKLSSVTAADTAVYYCARDYYVSGNYYNVDYYFFGVDVWGQGTTVTVSS
VL: EIVLTQSPATLSLSPGERATLSCRASQSVSSYLAWYQQKPGQAPRLLIYDASNRATGIPARFSGSGSGTDFTLTISSLEPEDFAVYYCQQRSNWPPLFTFGPGTKVDIK
With B9 the Kd [11] was 0.202 nM, the Kd [12] was 16.1 nM and the Kd [13] was 3.4 nM.
